Assay results reported in patent US11142588B2, “Polypeptides which bind C-X-C chemokine receptor type 4 (CXCR4) and methods of treating or reducing the risk of fibrosis and cancer” (AdAlta Limited, priority 2015, dated 2021).

Columns and labels:
[1] = Bleomycin mouse model of pulmonary fibrosis; format: in vivo; details: day 4, dose not given
Source text: The optimal dose of Bleomycin is 2 U/mouse and the optimal time for assessing fibrocyte recruitment was confirmed at day 4. At days 4 bronchoalvelolar lavage (BAL) fluids were collected for analysis of SDF-1 concentration. One half of the lung tissue was used to make single cell suspensions of the lung and the cells used for flow cytometry and assayed for CD45+, CXCR4+ and Collagen1+ (fibrocytes). The other half of the lung tissue was Sircol stained for the presence of collagen 1 and RNA will be tested for Col-1, Col-3 and SDF-1.
SDF-1, fibrocytes and collagen deposition were monitored at Day 4. Groups were dosed with the i-body just prior to administration with Bleomycin. One half of the lung tissue was minced and washed in PBS and used to make single cell suspensions of the lung with Collagenase A and dispase treatment. The cells were then used for flow cytometry and assayed for CD45+, CXCR4+ and Collagen1+ fibrocytes. […]

[2] = tested on: HIV entry into CXCR4 expressing T-cells; assay: In vitro HIV inhibition assay; format: cell-based
[3] = MOG induced experimental autoimmune encephalomyelitis (EAE); format: in vivo, mouse; details: immunohistochemistry, hematoxylin and eosin
Experimental: This is the time that has been reported to be critical for infiltration of inflammatory cells across the blood brain barrier. […] It appears that blocking this migration can alleviate the symptoms of EAE.
Immunohistochemistry of the brains of the experimental mice was performed.

[4] = Murine air pouch model with SDF-1; format: in vivo, BALB/c mice; details: intraperitoneal, 30 minutes before SDF-1 6 μg
Experimental: The ability of i-bodies to block inflammation was evaluated in an in vivo murine air pouch model. The subcutaneous (s.c.) air pouch is an in vivo model used to study acute and chronic inflammation (Durate et al, Models of Inflammation: Carrageenan Air Pouch, Current Protocols in Pharmacology 5.6.1-5.6.8, March 2012). Injection of irritants into an air pouch in rats or mice induces an inflammatory response that can be quantified by the volume of exudate produced, the infiltration of cells, and the release of inflammatory mediators. An air pouch, is generated by injection of sterile air under the skin of the back of the mouse. […] Air pouch lavage fluid is then analyzed for cell trafficking and cytokine release.
The air pouch assay was performed on 7-week-old BALB/c mice. On days 1 and 3, 0.2 ml/g initial body weight (IBW) of sterile air was injected under the back skin to create the pouch. […] Thirty minutes later, SDF-1 (6 μg) was injected into the pouch. Four hours later, the mice were killed in a CO2 chamber and the air pouch was washed. Cells were collected, counted, and characterized by flow cytometry.

[5] = tested on: normal and IPF lung fibroblasts; assay: Wound healing invasion assay of lung fibroblasts; format: cell-based, human; details: AMD3100 12 μM, 21H5 130 μg/ml
Experimental: To determine the role of CXCR4 and CXCL12 in fibroblast invasion, normal and IPF lung fibroblasts were utilized in a wound healing invasion assay. ImageLock 96 well plates (Essen Bioscience) were coated with 50 μg/ml of Basement membrane extract (BME; Trevigen) for one hour at room temperature. Normal, and fibroblasts generated from lung biopsies of idiopathic pulmonary fibrosis (IPF) patients showing slow progression or rapid progression of the disease were plated (36,000 cells per well) on the BME-coated plates and incubated overnight. […] The BME was allowed to polymerize by incubating the plate at 37° C. for 15 minutes. The plates were then inserted into an IncuCyte Zoom imaging system and images were acquired every 2 hours for approximately 50 hours. Invasion was quantified using IncuCyte software (Essen Bioscience).

[6] = tested on: human CD34+ stem and progenitor cells; assay: Mobilisation of human CD34+ cells in humanised NSG mice; format: in vivo, humanized NODSIL2Rγ (NSG) mice; details: humanised NSG mouse model, compared to AMD3100
Experimental: To acquire evidence of mobilisation of human CD34^+ stem and progenitor cells using CXCR4 i-bodies, the above mobilisation experiment was conducted in humanized NODSIL2Rγ (NSG) mice. NSG mice are severely immunodeficient and lack mature T cells, B-cells and NK cells and have severely defective innate immunity, which allows engraftment of human cells without subsequent rejection. NSG mice were transplanted with freshly sorted CD34^+ cord blood cells and upon confirmation of positive human CD45/CD34 engraftment (˜4-5 weeks) were used as a mouse model for human stem cell mobilisation.
Mobilised peripheral blood was harvested and assessed for CD34^+ (human stem and progenitors).

[7] = tested on: Human platelet rich plasma; assay: SDF-1α induced platelet aggregation; format: cell-based; details: 10 or 20 ug/mL, 100 nM SDF-1 alpha
Experimental: Experiments were carried out to examine whether the i-bodies could block platelet aggregation induced by SDF-1α. […] In the presence of negative control i-body 21H5 (or the isotype control for 12G5: mouse IgG2a). SDF-1 induced a robust and reproducible aggregation (the descending black curves, which indicate an increase in light transmission), which matches with what has been previously published.

Ramos tumor cells = assay: MTT cell proliferation assay; format: cell-based, human; details: 24 to 72 hrs, AM3-114 at 10 μM
Experimental: The ability of the CXCR4 molecules or polypeptides disclosed herein (i-bodies) to inhibit proliferation of Ramos tumor cells, a human Burkitt's lymphoma cell line expressing CXCR4 mentioned above, in vitro was examined in a MTT cell proliferation assay as described in (Lapteva (2005) Cancer Gene Therapy 12, 84-89). Cells were grown in a 96-well tissue culture plate and treated with a vehicle or the anti-CXCR4 body. The cells were then incubated with the MTT solution for approximately 4 hours. After this incubation period, a water-insoluble formazan dye is formed. After solubilization, the formazan dye is quantitated using a scanning multi-well spectrophotometer (ELISA reader).

B1: 21H5: control i-body which does not bind to CXCR4, isotype control, SEQ ID NO: 82 (protein)
chain: LQVDIVPSQGEISVGESKFFLCQVAGDAKDKDISWFSPNGEKLTPNQQRISVVWNDDSSSTLTIYNANIDDAGIYKCVVTGSDAMSNYSYPISESEATVNVKIFQ
modifications: amino acid sequence encoding 21H5 i-body
[1]
  recruitment of fibrocytes into the lungs: Neither the vehicle alone nor the negative control i-body affected recruitment
[2]
  effect in HIV inhibition assay: no effect
[3]
  inflammatory T-cell infiltration into the white matter of the brain: Dramatic T-cell infiltration
[4]
  cell migration / leukocyte infiltration into the air pouch: did not inhibit cell migration
[5]
  invasion / motility of normal, slow and rapid IPF lung fibroblast lines: had no effect
[6]
  mobilisation of human CD34+ stem cells: do not mobilise stem cells
[7]
  blocking of SDF-1α induced platelet aggregation: Neither the negative control i-body nor the control MAb had any effect
Ramos tumor cells
  growth of RAMOS cells: little effect on cell growth
